Results from ChEMBL document CHEMBL1143427, “Interactions of ceftobiprole with beta-lactamases from molecular classes A to D” (Antimicrob Agents Chemother, 2007).

Tests used:
[1] = substrate: CO/N=C(\C(=O)N[C@@H]1C(=O)N2C(C(=O)O)=C(COC(C)=O)CS[C@H]12)c1csc(N)n1; test: (§1) Ratio of Kcat to Km of Klebsiella oxytoca beta-lactamase K1 assessed as drug hydrolysis by spectrophotometry
[2] = substrate: CO/N=C(\C(=O)N[C@@H]1C(=O)N2C(C(=O)[O-])=C(C[N+]3(C)CCCC3)CS[C@H]12)c1csc(N)n1; test: as §1
[3] = substrate: CC(C)(O/N=C(\C(=O)N[C@@H]1C(=O)N2C(C(=O)[O-])=C(C[n+]3ccccc3)CS[C@H]12)c1csc(N)n1)C(=O)O; test: as §1
[4] = substrate: CC1(C)S[C@@H]2[C@H](NC(=O)Cc3ccccc3)C(=O)N2[C@H]1C(=O)O; test: as §1
[5] = substrate: Nc1nc(/C(=N/O)C(=O)N[C@@H]2C(=O)N3C(C(=O)O)=C(/C=C4\CCN([C@@H]5CCNC5)C4=O)CS[C@H]23)ns1; test: as §1
[6] = substrate: O=C(Cc1cccs1)N[C@@H]1C(=O)N2C(C(=O)[O-])=C(C[n+]3ccccc3)CS[C@H]12; test: as §1
[7] = substrate: CO/N=C(\C(=O)N[C@@H]1C(=O)N2C(C(=O)O)=C(COC(C)=O)CS[C@H]12)c1csc(N)n1; test: (§2) Activity of Klebsiella oxytoca beta-lactamase K1assessed as drug hydrolysis by spectrophotometry
[8] = substrate: CO/N=C(\C(=O)N[C@@H]1C(=O)N2C(C(=O)[O-])=C(C[N+]3(C)CCCC3)CS[C@H]12)c1csc(N)n1; test: as §2
[9] = substrate: CC(C)(O/N=C(\C(=O)N[C@@H]1C(=O)N2C(C(=O)[O-])=C(C[n+]3ccccc3)CS[C@H]12)c1csc(N)n1)C(=O)O; test: as §2
[10] = substrate: CC1(C)S[C@@H]2[C@H](NC(=O)Cc3ccccc3)C(=O)N2[C@H]1C(=O)O; test: as §2
[11] = substrate: Nc1nc(/C(=N/O)C(=O)N[C@@H]2C(=O)N3C(C(=O)O)=C(/C=C4\CCN([C@@H]5CCNC5)C4=O)CS[C@H]23)ns1; test: as §2
[12] = substrate: O=C(Cc1cccs1)N[C@@H]1C(=O)N2C(C(=O)[O-])=C(C[n+]3ccccc3)CS[C@H]12; test: as §2
[13] = substrate: CO/N=C(\C(=O)N[C@@H]1C(=O)N2C(C(=O)[O-])=C(C[N+]3(C)CCCC3)CS[C@H]12)c1csc(N)n1; conditions: Escherichia coli
[14] = substrate: CC(C)(O/N=C(\C(=O)N[C@@H]1C(=O)N2C(C(=O)[O-])=C(C[n+]3ccccc3)CS[C@H]12)c1csc(N)n1)C(=O)O; conditions: Escherichia coli
[15] = substrate: CC1(C)S[C@@H]2[C@H](NC(=O)Cc3ccccc3)C(=O)N2[C@H]1C(=O)O; conditions: Escherichia coli
[16] = substrate: Nc1nc(/C(=N/O)C(=O)N[C@@H]2C(=O)N3C(C(=O)O)=C(/C=C4\CCN([C@@H]5CCNC5)C4=O)CS[C@H]23)ns1; conditions: Escherichia coli
[17] = substrate: O=C(Cc1cccs1)N[C@@H]1C(=O)N2C(C(=O)[O-])=C(C[n+]3ccccc3)CS[C@H]12; conditions: Escherichia coli
[18] = substrate: CO/N=C(\C(=O)N[C@@H]1C(=O)N2C(C(=O)[O-])=C(C[N+]3(C)CCCC3)CS[C@H]12)c1csc(N)n1; conditions: Escherichia coli; remark: listed apart in the source
[19] = substrate: CC(C)(O/N=C(\C(=O)N[C@@H]1C(=O)N2C(C(=O)[O-])=C(C[n+]3ccccc3)CS[C@H]12)c1csc(N)n1)C(=O)O; conditions: Escherichia coli; remark: listed apart in the source
[20] = substrate: CC1(C)S[C@@H]2[C@H](NC(=O)Cc3ccccc3)C(=O)N2[C@H]1C(=O)O; conditions: Escherichia coli; remark: listed apart in the source
[21] = substrate: Nc1nc(/C(=N/O)C(=O)N[C@@H]2C(=O)N3C(C(=O)O)=C(/C=C4\CCN([C@@H]5CCNC5)C4=O)CS[C@H]23)ns1; conditions: Escherichia coli; remark: listed apart in the source
[22] = substrate: O=C(Cc1cccs1)N[C@@H]1C(=O)N2C(C(=O)[O-])=C(C[n+]3ccccc3)CS[C@H]12; conditions: Escherichia coli; remark: listed apart in the source
[23] = substrate: CO/N=C(\C(=O)N[C@@H]1C(=O)N2C(C(=O)[O-])=C(C[N+]3(C)CCCC3)CS[C@H]12)c1csc(N)n1; test: (§3) Activity of Serratia marcescens AmpC assessed as drug hydrolysis by spectrophotometry
[24] = substrate: CC(C)(O/N=C(\C(=O)N[C@@H]1C(=O)N2C(C(=O)[O-])=C(C[n+]3ccccc3)CS[C@H]12)c1csc(N)n1)C(=O)O; test: as §3
[25] = substrate: CC1(C)S[C@@H]2[C@H](NC(=O)Cc3ccccc3)C(=O)N2[C@H]1C(=O)O; test: as §3
[26] = substrate: Nc1nc(/C(=N/O)C(=O)N[C@@H]2C(=O)N3C(C(=O)O)=C(/C=C4\CCN([C@@H]5CCNC5)C4=O)CS[C@H]23)ns1; test: as §3
[27] = substrate: O=C(Cc1cccs1)N[C@@H]1C(=O)N2C(C(=O)[O-])=C(C[n+]3ccccc3)CS[C@H]12; test: as §3
[28] = substrate: O=C(Cc1cccs1)N[C@@H]1C(=O)N2C(C(=O)O)=C(/C=C/c3ccc([N+](=O)[O-])cc3[N+](=O)[O-])CS[C@H]12; test: as §3
[29] = substrate: CO/N=C(\C(=O)N[C@@H]1C(=O)N2C(C(=O)[O-])=C(C[N+]3(C)CCCC3)CS[C@H]12)c1csc(N)n1; test: (§4) Ratio of Kcat to Km of Serratia marcescens AmpC assessed as drug hydrolysis by spectrophotometry
[30] = substrate: CC(C)(O/N=C(\C(=O)N[C@@H]1C(=O)N2C(C(=O)[O-])=C(C[n+]3ccccc3)CS[C@H]12)c1csc(N)n1)C(=O)O; test: as §4
[31] = substrate: CC1(C)S[C@@H]2[C@H](NC(=O)Cc3ccccc3)C(=O)N2[C@H]1C(=O)O; test: as §4
[32] = substrate: Nc1nc(/C(=N/O)C(=O)N[C@@H]2C(=O)N3C(C(=O)O)=C(/C=C4\CCN([C@@H]5CCNC5)C4=O)CS[C@H]23)ns1; test: as §4
[33] = substrate: O=C(Cc1cccs1)N[C@@H]1C(=O)N2C(C(=O)[O-])=C(C[n+]3ccccc3)CS[C@H]12; test: as §4
[34] = substrate: O=C(Cc1cccs1)N[C@@H]1C(=O)N2C(C(=O)O)=C(/C=C/c3ccc([N+](=O)[O-])cc3[N+](=O)[O-])CS[C@H]12; test: as §4
[35] = substrate: CO/N=C(\C(=O)N[C@@H]1C(=O)N2C(C(=O)[O-])=C(C[N+]3(C)CCCC3)CS[C@H]12)c1csc(N)n1; test: (§5) Ratio of Kcat to Km of Pseudomonas aeruginosa IMP1 assessed as drug hydrolysis by spectrophotometry
[36] = substrate: CC(C)(O/N=C(\C(=O)N[C@@H]1C(=O)N2C(C(=O)[O-])=C(C[n+]3ccccc3)CS[C@H]12)c1csc(N)n1)C(=O)O; test: as §5
[37] = substrate: CC1(C)S[C@@H]2[C@H](NC(=O)Cc3ccccc3)C(=O)N2[C@H]1C(=O)O; test: as §5
[38] = substrate: Nc1nc(/C(=N/O)C(=O)N[C@@H]2C(=O)N3C(C(=O)O)=C(/C=C4\CCN([C@@H]5CCNC5)C4=O)CS[C@H]23)ns1; test: as §5
[39] = substrate: O=C(Cc1cccs1)N[C@@H]1C(=O)N2C(C(=O)[O-])=C(C[n+]3ccccc3)CS[C@H]12; test: as §5

B1: Beta-lactamase (Klebsiella oxytoca), Q8RT60 (protein)
chain: MIKSSWRKIAMLAAAVPLLLASGALWASTDAIHQKLTDLEKRSGGRLGVALINTADNSQILYRGDERFAMCSTSKVMAAAAVLKQSESNKEVVNKRLEINAADLVVWSPITEKHLQSGMTLAELSAATLQYSDNTAMNLIIGYLGGPEKVTAFARSIGDATFRLDRTEPTLNTAIPGDERDTSTPLAMAESLRKLTLGDALGEQQRAQLVTWLKGNTTGGQSIRAGLPESWVVGDKTGAGDYGTTNDIAVIWPEDHAPLILVTYFTQPQQDAKNRKEVLAAAAKIVTEGL
- kcat/Km [1]: 160000 M⁻¹ s⁻¹
- kcat/Km [2]: 59000 M⁻¹ s⁻¹
- kcat/Km [3]: 130 M⁻¹ s⁻¹
- kcat/Km [4]: 2.8e+07 M⁻¹ s⁻¹
- kcat/Km [5]: 7.2e+06 M⁻¹ s⁻¹
- kcat/Km [6]: 7e+06 M⁻¹ s⁻¹
- Km [7]: 550 µM
- kcat [7]: 88 s⁻¹
- Km [8]: 1000 µM
- kcat [8]: 59 s⁻¹
- Km [9]: 140 µM
- kcat [9]: 0.018 s⁻¹
- Km [10]: 40 µM
- kcat [10]: 1100 s⁻¹
- Km [11]: 32 µM
- kcat [11]: 230 s⁻¹
- Km [12]: 100 µM
- kcat [12]: 700 s⁻¹

B2: Class A carbapenemase KPC-2 (Escherichia coli), A8DS27 (protein)
chain: MSLYRRLVLLSCLSWPLAGFSATALTNLVAEPFAKLEQDFGGSIGVYAMDTGSGATVSYRAEERFPLCSSFKGFLAAAVLARSQQQAGLLDTPIRYGKNALVPWSPISEKYLTTGMTVAELSAAAVQYSDNAAANLLLKELGGPAGLTAFMRSIGDTTFRLDRWELELNSAIPGDARDTSSPRAVTESLQKLTLGSALAAPQRQQFVDWLKGNTTGNHRIRAAVPADWAVGDKTGTCGVYGTANDYAVVWPTGRAPIVLAVYTRAPNKDDKHSEAVIAAAARLALEGLGVNGQ
- Km [13]: 540 µM
- kcat [13]: 12 s⁻¹
- Km [14]: 230 µM
- kcat [14]: 0.38 s⁻¹
- Km [15]: 30 µM
- kcat [15]: 60 s⁻¹
- Km [16]: 340 µM
- kcat [16]: 110 s⁻¹
- Km [17]: 510 µM
- kcat [17]: 390 s⁻¹
- kcat/Km [18]: 22000 M⁻¹ s⁻¹
- kcat/Km [19]: 1700 M⁻¹ s⁻¹
- kcat/Km [20]: 2e+06 M⁻¹ s⁻¹
- kcat/Km [21]: 320000 M⁻¹ s⁻¹
- kcat/Km [22]: 770000 M⁻¹ s⁻¹

B3: Beta-lactamase (Serratia marcescens), P18539 (protein)
chain: MTKMNRCAALIAALILPTAHAAQQQDIDAVIQPLMKKYGVPGMAIAVSVDGKQQIYPYGVASKQTGKPITEQTLFEVGSLSKTFTATLAVYAQQQSKLSFKDPASHYLPDVRGSAFDGVSLLNLATHTSGLPLFVPDDVTNNAQLMAYYRAWQPKHPAGSYRVYSNLGIGMLGMIAAKSLDQPFIQAMEQGMLPALGMSHTYVQVPAAQMANYAQGYSKDDKPVRVNPGPLDAESYGIKSNARDLIRYLDANLQQVKVASVARRWPRRTSVITSAGAFTQDLMWENYPYPVKLSRLIEGNNAGMIMNGTPATAITPPQPELRAGWYNKTGSTGGFSTYAVFIPAKNIAVEMLANKWFPNDDRVEAAYHIIQALEKR
- Km [23]: > 800 µM
- kcat [23]: < 0.55 s⁻¹
- Km [24]: 570 µM
- kcat [24]: < 0.05 s⁻¹
- Km [25]: 2.1 µM
- kcat [25]: 19 s⁻¹
- Km [26]: 320 µM
- kcat [26]: < 2.7 s⁻¹
- Km [27]: 680 µM
- kcat [27]: 2000 s⁻¹
- Km [28]: 14 µM
- kcat [28]: 840 s⁻¹
- kcat/Km [29]: < 690 M⁻¹ s⁻¹
- kcat/Km [30]: < 88 M⁻¹ s⁻¹
- kcat/Km [31]: 9e+06 M⁻¹ s⁻¹
- kcat/Km [32]: < 8400 M⁻¹ s⁻¹
- kcat/Km [33]: 3.1e+06 M⁻¹ s⁻¹
- kcat/Km [34]: 6e+07 M⁻¹ s⁻¹

B4: Metallo beta-lactamase (Pseudomonas aeruginosa), Q6TUJ4 (protein)
chain: YVHTSFEEVNGWGVVPKHGLVVLVNAEAYLIDTPFTAKDTEKLVTWFVERGYKIKGSISSHFHSDSTGGIEWLNSRSIPTYASELTNELLKKDGKVQATNSFSGVNYWLVKNKIEVFYPGPGHTPDNVVVWLP
- kcat/Km [35]: 150000 M⁻¹ s⁻¹
- kcat/Km [36]: 90000 M⁻¹ s⁻¹
- kcat/Km [37]: 560000 M⁻¹ s⁻¹
- kcat/Km [38]: 740000 M⁻¹ s⁻¹
- kcat/Km [39]: 75000 M⁻¹ s⁻¹
